Tested on: Escherichia coli TOP10
Assay: shrunken log2 fold change of peptide-encoding DNA abundance (4.5 h post-induction vs induction); higher = less antimicrobial activity (less host growth inhibition)
Conditions: time post-induction: 4.5 h; library: site-saturation at positions 5, 18, 19, 20
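Also: peptides expressed intracellularly from a pBAD plasmid library in pooled LB shake-flask culture, induced with 0.3% L-arabinose, DNA abundance read by NGS, three biological replicates, DESeq2 with apeglm shrinkage.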

Row | Sequence | shrunken log2 fold change
1 | RRIRYRPPRLPRPRPRPQIDPRP | 0.0753
2 | RRIRPRPPRLPRPRPRPIMLPRP | -0.114
3 | RRIRWRPPRLPRPRPRPENAPRP | 0.275
4 | RRIRMRPPRLPRPRPRPVQYPRP | 0.0273
5 | RRIRFRPPRLPRPRPRPHQHPRP | -0.582
6 | RRIRQRPPRLPRPRPRPSNIPRP | -0.286
7 | RRIRIRPPRLPRPRPRPPGNPRP | -0.233
8 | RRIRERPPRLPRPRPRPAYAPRP | 0.0657
9 | RRIRLRPPRLPRPRPRPGKRPRP | 0.364
10 | RRIRGRPPRLPRPRPRPTHYPRP | 0.525
11 | RRIRNRPPRLPRPRPRPIAFPRP | -0.111
12 | RRIRNRPPRLPRPRPRPKIMPRP | 0.0385
13 | RRIRWRPPRLPRPRPRPQDIPRP | -0.352
14 | RRIRDRPPRLPRPRPRPGYLPRP | -0.394
15 | RRIRWRPPRLPRPRPRPWCSPRP | -0.329
16 | RRIRGRPPRLPRPRPRPDVMPRP | 1.33
17 | RRIRPRPPRLPRPRPRPVGVPRP | 0.52
18 | RRIRIRPPRLPRPRPRPDTRPRP | -0.293
19 | RRIRLRPPRLPRPRPRPRREPRP | 0.223
20 | RRIRWRPPRLPRPRPRPPYSPRP | -0.262
21 | RRIRWRPPRLPRPRPRPEQSPRP | 0.678
22 | RRIRHRPPRLPRPRPRPEYIPRP | 0.00452
23 | RRIRARPPRLPRPRPRPIQYPRP | -0.463
24 | RRIRDRPPRLPRPRPRPNCNPRP | 1.33
25 | RRIRLRPPRLPRPRPRPNQKPRP | -0.0744

Row | Sequence | shrunken log2 fold change
26 | RRIRDRPPRLPRPRPRPIPPPRP | 0.239
27 | RRIRYRPPRLPRPRPRPFPIPRP | -0.705
28 | RRIRDRPPRLPRPRPRPCQAPRP | -0.0133
29 | RRIRTRPPRLPRPRPRPICIPRP | -0.196
30 | RRIRKRPPRLPRPRPRPTEKPRP | 0.247
31 | RRIRQRPPRLPRPRPRPRMDPRP | -0.0734
32 | RRIRSRPPRLPRPRPRPGMMPRP | 0.227
33 | RRIRSRPPRLPRPRPRPMKKPRP | -0.0833
34 | RRIRWRPPRLPRPRPRPEALPRP | 0.174
35 | RRIRDRPPRLPRPRPRPDTRPRP | 0.203
36 | RRIRNRPPRLPRPRPRPFAAPRP | 0.0928
37 | RRIRARPPRLPRPRPRPHGKPRP | 0.175
38 | RRIRVRPPRLPRPRPRPHQQPRP | -0.0863
39 | RRIRIRPPRLPRPRPRPIMDPRP | -0.364
40 | RRIRGRPPRLPRPRPRPMHPPRP | -0.104
41 | RRIRYRPPRLPRPRPRPKHFPRP | -0.327
42 | RRIRARPPRLPRPRPRPTCRPRP | 0.592
43 | RRIRMRPPRLPRPRPRPMNCPRP | -0.00776
44 | RRIRCRPPRLPRPRPRPWDTPRP | -0.282
45 | RRIRVRPPRLPRPRPRPNDRPRP | -0.0172
46 | RRIRDRPPRLPRPRPRPKKKPRP | -0.0718
47 | RRIRQRPPRLPRPRPRPTNAPRP | -0.309
48 | RRIRMRPPRLPRPRPRPFTIPRP | -0.386
49 | RRIRARPPRLPRPRPRPMYLPRP | -0.506
50 | RRIRVRPPRLPRPRPRPLHSPRP | -0.0269

Row | Sequence | shrunken log2 fold change
51 | RRIRYRPPRLPRPRPRPMFEPRP | -0.315
52 | RRIRIRPPRLPRPRPRPECKPRP | -0.259
53 | RRIRHRPPRLPRPRPRPAPIPRP | 0.31
54 | RRIRFRPPRLPRPRPRPVKEPRP | -0.0554
55 | RRIRMRPPRLPRPRPRPTFCPRP | 0.282
56 | RRIRMRPPRLPRPRPRPKPAPRP | 1.55
57 | RRIRNRPPRLPRPRPRPDSRPRP | -0.0141
58 | RRIRTRPPRLPRPRPRPEPLPRP | 0.0272
59 | RRIRYRPPRLPRPRPRPVRDPRP | -0.123
60 | RRIRSRPPRLPRPRPRPKFQPRP | 0.146
61 | RRIRPRPPRLPRPRPRPYVMPRP | -0.706
62 | RRIRPRPPRLPRPRPRPLSKPRP | 0.14
63 | RRIRHRPPRLPRPRPRPQYPPRP | -0.161
64 | RRIRVRPPRLPRPRPRPPTEPRP | 0.273
65 | RRIRKRPPRLPRPRPRPRMTPRP | 0.635
66 | RRIRGRPPRLPRPRPRPWTYPRP | 0.0864
67 | RRIRNRPPRLPRPRPRPHMSPRP | 0.0135
68 | RRIRFRPPRLPRPRPRPVIYPRP | -0.588
69 | RRIRYRPPRLPRPRPRPHLVPRP | -0.0159
70 | RRIRVRPPRLPRPRPRPRNQPRP | 0.0453
71 | RRIRGRPPRLPRPRPRPRNNPRP | 0.346
72 | RRIRMRPPRLPRPRPRPGFRPRP | 0.525
73 | RRIRPRPPRLPRPRPRPVPVPRP | 0.136
74 | RRIRRRPPRLPRPRPRPAFCPRP | 0.404
75 | RRIRVRPPRLPRPRPRPPHMPRP | -0.0804

Row | Sequence | shrunken log2 fold change
76 | RRIRKRPPRLPRPRPRPIGCPRP | -0.000243
77 | RRIRCRPPRLPRPRPRPDDDPRP | 0.0464
78 | RRIRERPPRLPRPRPRPKIQPRP | -0.259
79 | RRIRGRPPRLPRPRPRPIVSPRP | 0.158
80 | RRIRSRPPRLPRPRPRPFAEPRP | 0.256
81 | RRIRWRPPRLPRPRPRPFSIPRP | -0.228
82 | RRIRFRPPRLPRPRPRPQCGPRP | -0.0775
83 | RRIRGRPPRLPRPRPRPSRCPRP | -0.0851
84 | RRIRNRPPRLPRPRPRPSVTPRP | 0.0789
85 | RRIRFRPPRLPRPRPRPWHKPRP | -0.413
86 | RRIRARPPRLPRPRPRPPNFPRP | -0.0624
87 | RRIRVRPPRLPRPRPRPCLGPRP | -0.069
88 | RRIRCRPPRLPRPRPRPMTDPRP | -0.0858
89 | RRIRGRPPRLPRPRPRPIFIPRP | -0.0812
90 | RRIRQRPPRLPRPRPRPQFFPRP | -0.122
91 | RRIRDRPPRLPRPRPRPQYYPRP | 0.003
92 | RRIRRRPPRLPRPRPRPWYIPRP | -0.595
93 | RRIRDRPPRLPRPRPRPTGPPRP | 0.334
94 | RRIRCRPPRLPRPRPRPQSNPRP | -0.822
95 | RRIRYRPPRLPRPRPRPWKKPRP | 0.00843
96 | RRIRTRPPRLPRPRPRPWKPPRP | 0.0143
97 | RRIRIRPPRLPRPRPRPNQCPRP | -0.465
98 | RRIRVRPPRLPRPRPRPQAFPRP | 0.0753
99 | RRIRHRPPRLPRPRPRPCESPRP | 0.0295
100 | RRIRNRPPRLPRPRPRPHMFPRP | -0.0579

Row | Sequence | shrunken log2 fold change
101 | RRIRWRPPRLPRPRPRPQMSPRP | -0.149
102 | RRIRYRPPRLPRPRPRPVDWPRP | 0.145
103 | RRIRSRPPRLPRPRPRPWQMPRP | 0.0651
104 | RRIRWRPPRLPRPRPRPTTQPRP | -0.0204
105 | RRIRPRPPRLPRPRPRPGECPRP | 0.739
106 | RRIRKRPPRLPRPRPRPPYPPRP | 0.0247
107 | RRIRARPPRLPRPRPRPAIMPRP | 0.161
108 | RRIRPRPPRLPRPRPRPCYIPRP | -0.795
109 | RRIRWRPPRLPRPRPRPSNAPRP | -0.0613
110 | RRIRQRPPRLPRPRPRPSCLPRP | -0.0903
111 | RRIRQRPPRLPRPRPRPNIVPRP | -0.044
112 | RRIRNRPPRLPRPRPRPCLLPRP | -0.414
113 | RRIRSRPPRLPRPRPRPWTHPRP | -0.373
114 | RRIRWRPPRLPRPRPRPNSWPRP | -0.0727
115 | RRIRCRPPRLPRPRPRPVKRPRP | 0.0344
116 | RRIRDRPPRLPRPRPRPTKAPRP | 0.000414
117 | RRIRRRPPRLPRPRPRPLLAPRP | 0.887
118 | RRIRPRPPRLPRPRPRPFRKPRP | -0.0819
119 | RRIRRRPPRLPRPRPRPGNAPRP | 0.304
120 | RRIRRRPPRLPRPRPRPNCKPRP | 0.155
121 | RRIRFRPPRLPRPRPRPDFIPRP | -0.395
122 | RRIRERPPRLPRPRPRPKEQPRP | 0.0401
123 | RRIRWRPPRLPRPRPRPKDDPRP | 0.553
124 | RRIRMRPPRLPRPRPRPEKVPRP | 1.45
125 | RRIRLRPPRLPRPRPRPPDKPRP | 0.0844
